Consider three molecules from patent US20180092984A1 (Seagen, published 2018).

Assay [1] has as its target T1, human CD48 (human, UniProt P09326 27-220).
T1 construct: whole, on cells; also called BLAST-1; SLAMF2
T1 sequence (looked up): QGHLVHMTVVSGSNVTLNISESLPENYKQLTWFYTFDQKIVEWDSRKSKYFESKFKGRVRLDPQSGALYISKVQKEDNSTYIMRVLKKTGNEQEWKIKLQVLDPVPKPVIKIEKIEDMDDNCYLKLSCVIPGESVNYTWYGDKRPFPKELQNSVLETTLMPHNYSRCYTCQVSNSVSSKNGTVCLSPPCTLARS
Briefly: flow cytometry saturation binding on U-266 cells. As to the method:
(§1) After one hour incubation on ice, cells were washed twice with phosphate buffered saline containing 2% fetal bovine serum and 0.02% sodium azide. Fluorescence was detected on a LSRII flow cytometer and Kd values were determined using one-site binding (hyperbola) non-linear regression in GraphPad Prism.

Assay [2] addresses T1, human CD48. Nature of the assay: flow cytometry saturation binding, Alexa Fluor-647 antibody on U-266 cells. As to the method:
as §1

Assay [3] addresses cynomolgus monkey CD48 (cynomolgus monkey). Nature of the assay: flow cytometry saturation binding on CHO-DG44 cells expressing cynomolgus monkey CD48.
The target in assay [4] is T1, human CD48. Nature of the assay: flow cytometry saturation binding, U-266 cells against CHO-DG44 cynomolgus monkey CD48 cells. As to the method:
as §1

Assay [5] concerns the target cynomolgus monkey CD48 (cynomolgus monkey). Briefly: flow cytometry saturation binding, Alexa Fluor-647 antibody on CHO-DG44 cells expressing cynomolgus monkey CD48.

For the molecule cMEM102 (antibody), the fold lower Kd compared to mMEM102 (with human CD48 [1]; in assay [3]) was over 4 fold throughout. The values for the Kd (in the assay with human CD48 [2]; in assay [5]) were 0.0058 µM and 0.0405 µM, respectively. Further, the fold stronger binding affinity to human CD48 compared to cynomolgus monkey CD48 with human CD48 [4] was found to be 6 fold.

For mMEM102 (antibody), the Kd with human CD48 [2] is 0.0208 µM; in assay [5], 0.165 µM. In addition, in the assay with human CD48 [4], the fold stronger binding affinity to human CD48 compared to cynomolgus monkey CD48 turned out to be 6 fold.

B1: hMEM102-HALA (antibody, V domains shown)
VH: QVQLVQSGSELKKPGASVKVSCKASGYTFTDFGMNWVRQAPGQGLEWMGWINTFTGEPSYGNVFKGRFVFSLDTSVSTAYLQISSLKAEDTAVYYCARRHGNGNVFDSWGQGTLVTVSS
VL: EIVLTQSPDFQSVTPKEKVTITCRASQSIGSNIHWYQQKPDQSPKLLIKYTSESISGVPSRFSGSGSGTDFTLTINSLEAEDAATYYCQQSNSWPLTFGGGTKVEIKR
notes: also called humanized MEM102 antibody; humanized MEM102-HALA antibody
Consider B1, for which the “fold lower Kd compared to mMEM102” value (with human CD48 [1]; in assay [3]) was over 4 fold each time. The Kd in the assay with human CD48 [2] was found to be 0.005 µM; in assay [5] it was 0.0311 µM. In addition, the “fold stronger binding affinity to human CD48 compared to cynomolgus monkey CD48” value in the assay with human CD48 [4] was about 6 fold.
